Biological target: EGFP-H2B (UniProt P06899)
Assay: FRET or BRET; FLIM-FRET in living cells at 37°C; EGFP fusion as donor, mCherry fusion as acceptor; two-photon excitation at 890 nm; FRET efficiency = 1 - (tauDA/tauD), tauD from cells with mCherry-C1; control cells and TSA-treated cells

FRET efficiency (minor population): 6%
Substance: mCherry-SRSF1 (from UniProt Q07955 1-248) (natural protein)

Reference: publication PMC3495951
